Experimental data from the supplement of paper PMC10567573.

B1: MFF (parent)
chain: YTEGISQRMRVPEKLKVAPPNADL
B2: ZNF24 (parent)
chain: THTKEQILELVVLEQFVAILPKEL

Variants of: B1
Test: protein stability index of a GFP-peptide fusion (GPS, HEK-293T) (PSI 1-6); higher = more stable
Details: c terminus: a fixed tail appended
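Further: lentivirally expressed fusions sorted by FACS into six bins by GFP to DsRed ratio, PSI derived from sequencing read proportions per bin multiplied by bin number.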

Point of comparison: YTEGISQRMRVPEKLRVAPPNADL [K16R], protein stability index 2.34. Against it:
- YTEGISQRMRVPEKLKIAPPNADL [V17I] — higher, 2.54
- YTEGISQRMRVPEKLKPAPPNADL [V17P] — higher, 3.31
- YTEGISQRMRVPEKLKRAPPNADL [V17R] — higher, 3.22
- YTEGISQRMRVPEKLKQAPPNADL [V17Q] — higher, 2.95
- YTEGISQRMRVPEKLKHAPPNADL [V17H] — higher, 2.9
- YTEGISQRDRVPEKLKVAPPNADL [M9D] — higher, 3.57
- YTEGISQRWRVPEKLKVAPPNADL [M9W] — lower, 2.01
- YTEGISQRHRVPEKLKVAPPNADL [M9H] — higher, 3.17
- YTEGISQRMRVPEKLKVAYPNADL [P19Y] — lower, 2.33
- YTEGISQRMRVPEKLKVAVPNADL [P19V] — higher, 3.29
- YTEGISQRMRVPEKLKVAPPTADL [N21T] — higher, 2.71
- YTEGISQRMRVPEKLKVAPPCADL [N21C] — lower, 2.33
- YTEGISQRMRVDEKLKVAPPNADL [P12D] — higher, 2.73
- YTEGISQRMRVNEKLKVAPPNADL [P12N] — higher, 2.96
- YTEGISDRMRVPEKLKVAPPNADL [Q7D] — higher, 3.43
- YTEGISSRMRVPEKLKVAPPNADL [Q7S] — higher, 2.45
- YTEGISRRMRVPEKLKVAPPNADL [Q7R] — higher, 2.81
- YTEGISKRMRVPEKLKVAPPNADL [Q7K] — higher, 2.39
- YTEGISQRMRVPNKLKVAPPNADL [E13N] — higher, 2.53
- YTEGISQRMRVPECLKVAPPNADL [K14C] — higher, 3.07
- YTEGISQRMRVPETLKVAPPNADL [K14T] — higher, 3.06
- YTEGISQRMRVPELLKVAPPNADL [K14L] — higher, 2.87
- YTEGISQRMRVPEMLKVAPPNADL [K14M] — higher, 3.39
- YHEGISQRMRVPEKLKVAPPNADL [T2H] — higher, 2.69
- YTEGISQRMRVPEKLKVAPPNGDL [A22G] — higher, 2.96
- YTEGISQLMRVPEKLKVAPPNADL [R8L] — lower, 2.2
- YTEGISQHMRVPEKLKVAPPNADL [R8H] — lower, 2.28
- YTEGISQRMRVPEKLKVAPENADL [P20E] — higher, 3.55
- YTEGISQRMRVPEKLKVAPMNADL [P20M] — higher, 2.66
- YTEGISQRMRVPEKLKVAPYNADL [P20Y] — lower, 2.04
- YTEGISQRMRVPEKLKVAPPNADH [L24H] — higher, 3.52
- YTEGISQRMRVPEKLKVAPPNADI [L24I] — higher, 2.8
- YTEGISQRMRCPEKLKVAPPNADL [V11C] — higher, 2.8
- YTEGISQRMRPPEKLKVAPPNADL [V11P] — higher, 2.78
- YTEGISQRMRFPEKLKVAPPNADL [V11F] — higher, 2.7
- YTEGISQRMRVPEKLKVEPPNADL [A18E] — higher, 3.03
- YTEGIDQRMRVPEKLKVAPPNADL [S6D] — higher, 3.51
- YTEGIGQRMRVPEKLKVAPPNADL [S6G] — higher, 2.86
- YTEGIKQRMRVPEKLKVAPPNADL [S6K] — higher, 2.45
- YTEGISQRMRVPEKLKVAPPNASL [D23S] — lower, 2.11
- YTEGISQRMRVPEKLKVAPPNAWL [D23W] — lower, 2.23
- YTEGISQRMRVPEKLKVAPPNAEL [D23E] — higher, 2.36
- YTEGISQRMRVPEKLKVAPPNALL [D23L] — lower, 2.02
- YTEGISQRMRVPEKLKVAPPNAQL [D23Q] — higher, 2.36
- YTHGISQRMRVPEKLKVAPPNADL [E3H] — higher, 2.92
- YTFGISQRMRVPEKLKVAPPNADL [E3F] — lower, 1.9
- YTGGISQRMRVPEKLKVAPPNADL [E3G] — lower, 2.3
- YTPGISQRMRVPEKLKVAPPNADL [E3P] — lower, 2.29
- YTEGISQRMRVPEKKKVAPPNADL [L15K] — higher, 3.19
- YTEGISQRMRVPEKAKVAPPNADL [L15A] — higher, 3.15
- YTEEISQRMRVPEKLKVAPPNADL [G4E] — higher, 3.61
- YTEFISQRMRVPEKLKVAPPNADL [G4F] — lower, 2.32
- FTEGISQRMRVPEKLKVAPPNADL [Y1F] — higher, 2.52
- ATEGISQRMRVPEKLKVAPPNADL [Y1A] — higher, 4.62
- LTEGISQRMRVPEKLKVAPPNADL [Y1L] — higher, 4.21
- NTEGISQRMRVPEKLKVAPPNADL [Y1N] — higher, 4.67
- QTEGISQRMRVPEKLKVAPPNADL [Y1Q] — higher, 4.41
- YTEGISQRMQVPEKLKVAPPNADL [R10Q] — higher, 3.11
- YTEGISQRMDVPEKLKVAPPNADL [R10D] — higher, 2.71
- YTEGISQRMHVPEKLKVAPPNADL [R10H] — higher, 2.52
- YTEGISQRMTVPEKLKVAPPNADL [R10T] — higher, 2.6

Variants of: B2
Test: as above
Details: c terminus: a fixed tail appended

Point of comparison: THTKEQIEELVVLEQFVAILPKEL [L8E], protein stability index 2.32. Against it:
- THTKEQILELVVLEQFVWILPKEL [A18W] — higher, 2.51
- THTKEQILELVVLEQFVYILPKEL [A18Y] — higher, 2.59
- THTKEQILELVVLEQFVCILPKEL [A18C] — higher, 3.45
- THTKEQILELVVLEQFVPILPKEL [A18P] — higher, 2.48
- THTKEQILELVVLEQFVMILPKEL [A18M] — lower, 1.65
- THTKEQILELVVLEQFVQILPKEL [A18Q] — higher, 2.48
- THTKEQILELVVLEQFVDILPKEL [A18D] — the same, 2.32
- TETKEQILELVVLEQFVAILPKEL [H2E] — higher, 2.74
- TATKEQILELVVLEQFVAILPKEL [H2A] — higher, 3.12
- TTTKEQILELVVLEQFVAILPKEL [H2T] — lower, 2.23
- TQTKEQILELVVLEQFVAILPKEL [H2Q] — higher, 3.14
- TPTKEQILELVVLEQFVAILPKEL [H2P] — lower, 1.76
- TITKEQILELVVLEQFVAILPKEL [H2I] — higher, 3.4
- TKTKEQILELVVLEQFVAILPKEL [H2K] — higher, 3.34
- THTKEQITELVVLEQFVAILPKEL [L8T] — lower, 1.75
- THTKEQIVELVVLEQFVAILPKEL [L8V] — higher, 2.4
- THTKEQIDELVVLEQFVAILPKEL [L8D] — higher, 2.52
- THTKEQIIELVVLEQFVAILPKEL [L8I] — higher, 2.79
- THTKEQIGELVVLEQFVAILPKEL [L8G] — lower, 1.62
- THTKEQIWELVVLEQFVAILPKEL [L8W] — higher, 3.68
- THTKEQILEIVVLEQFVAILPKEL [L10I] — lower, 2.02
- THTKEQILEEVVLEQFVAILPKEL [L10E] — lower, 2.12
- THTKEQILETVVLEQFVAILPKEL [L10T] — lower, 2.03
- THTKEQILEMVVLEQFVAILPKEL [L10M] — higher, 2.69
- THTKEQILEKVVLEQFVAILPKEL [L10K] — lower, 2.04
- THTKEQILEQVVLEQFVAILPKEL [L10Q] — lower, 2.26
- THTNEQILELVVLEQFVAILPKEL [K4N] — lower, 2.23
- THTHEQILELVVLEQFVAILPKEL [K4H] — lower, 2
- THTREQILELVVLEQFVAILPKEL [K4R] — lower, 1.59
- THTLEQILELVVLEQFVAILPKEL [K4L] — higher, 4.05
- THTYEQILELVVLEQFVAILPKEL [K4Y] — higher, 2.51
